{
  "source": "patent US20250019432A1",
  "target": "CD33 on U937 cells (UniProt P20138)",
  "sequence (P20138 18-364 limits assumed)": "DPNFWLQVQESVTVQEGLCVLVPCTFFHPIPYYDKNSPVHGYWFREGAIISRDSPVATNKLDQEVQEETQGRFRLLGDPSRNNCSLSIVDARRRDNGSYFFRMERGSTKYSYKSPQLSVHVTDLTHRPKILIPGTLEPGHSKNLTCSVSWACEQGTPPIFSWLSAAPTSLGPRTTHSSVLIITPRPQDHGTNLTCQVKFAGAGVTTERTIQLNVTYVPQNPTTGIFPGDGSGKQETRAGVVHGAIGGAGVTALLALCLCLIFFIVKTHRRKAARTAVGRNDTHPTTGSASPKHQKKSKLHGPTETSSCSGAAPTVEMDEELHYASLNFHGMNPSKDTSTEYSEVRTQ",
  "assay": "cell-based or functional assay",
  "data": [
    {"substance": "anti-CD33 antibody P67.6", "values": [
      {"measurement": "CD33 % surface expression, 0 min", "result": 100, "unit": "%"},
      {"measurement": "CD33 % surface expression, 15 min", "result": 79, "unit": "%"},
      {"measurement": "CD33 % surface expression, 30 min", "result": 72, "unit": "%"},
      {"measurement": "CD33 % surface expression, 45 min", "result": 68, "unit": "%"},
      {"measurement": "CD33 % surface expression, 90 min", "result": 53, "unit": "%"},
      {"measurement": "CD33 % surface expression, 120 min", "result": 48, "unit": "%"},
      {"measurement": "MFI of pH sensitive dye, CD33 complexes, 0 hours", "result": 20.8},
      {"measurement": "MFI of pH sensitive dye, CD33 complexes, 4 hours", "result": 26},
      {"measurement": "MFI of pH sensitive dye, CD33 complexes, 24 hours", "result": 31.9}
    ]}
  ]
}
